Data as given in patent publication US20210371522A1 (CELGENE, published 2021).

Experiments:
[1] = biological target: T1, human CD47, endogenous cell surface form (human, UniProt Q08722 19-323); experiment: cell-based or functional assay
T1 construct: Endogenous CD47 on human tumor cell lines; also called cell surface CD47; CD47 on Raji, CCRF-CEM and Daudi cells

[2] = biological target: T1, human CD47, endogenous cell surface form; experiment: as described in Examples 2 and 3
Excerpt: Exemplary murine CD47 antibodies disclosed here are shown in FIG. 2, as disclosed in U.S. patent application Ser. No. 13/960,136 (Publication No. US20140140989).

phagocytosis of tumor cells (CFSE-labeled CCRF-CEM) by monocyte derived macrophages [1] [pM]	binding result [2]	Binder
66.7	–	CD47 antibody B6H12 (antibody, from another filing, V domains shown) VH: EVQLVESGGDLVKPGGSLKLSCAASGFTFSGYGMSWVRQTPDKRLEWVATITSGGTYTYYPDSVKGRFTISRDNAKNTLYLQIDSLKSEDTAIYFCARSLAGNAMDYWGQGTSVTVSS VL: DIVMTQSPATLSVTPGDRVSLSCRASQTISDYLHWYQQKSHESPRLLIKFASQSISGIPSRFSGSGSGSDFTLSINSVEPEDVGVYYCQNGHGFPRTFGGGTKLEIK
–	binds	murine 9E4 antibody (antibody, mouse IgG1, V domains shown) VH: EVQLRQSGPELVKPGASVKISCKASGYSFTDYYMYWVKQSRVRSLAWIGRINPYTGATGYDQNFKDKASLIVDKSSSTAYMELRSLTSEDSAVYYCARGRNRYDGWFAYWGQGTLVTV VL: EIQMTQTTSSLSASLGDRVTISCRASQDISNYLNWYQQKPDGTVKLLIYYTSRLHSGVPSRFSGSGSGTDYSLTISNLDQEDIATYFCQQGNALPPTFGGGTNLEIK
